# From patent publication US20160060320A1 (UNIVERSITY OF COPENHAGEN, published 2016)
# Ends that are not written are not given here.
# B1: NPY31-36 (peptide)
# peptide: ITRQRY-NH2
# modifications: also: Tyr36 (pos 6): amidated per mods, acetylation
# B2: NPY22-35 (peptide)
# peptide: SALRHYINLITRQR
# B3: NPY23-36 (peptide)
# peptide: ALRHYINLITRQRY-NH2
# B4: NPY21-35 ala21 (peptide)
# peptide: ASALRHYINLITRQR
# B5: NPY3-35 reversed sequence (peptide)
# peptide: RQRTILNIYHRLASYYRAMDEAPADEGPNDPKS
# B6: NPY13-35 (peptide)
# peptide: PAEDMARYYSALRHYINLITRQR
# B7: Neuropeptide Y (NPY; NPY1-36; full-length NPY) (peptide)
# peptide: not shown
# modifications: Tyr36 amidated
# B8: NPY24-35 (peptide)
# peptide: LRHYINLITRQR
# B9: NPY21-34 (peptide)
# peptide: YSALRHYINLITRQ
# B10: NPY1-20 (peptide)
# peptide: YPSKPDNPGEDAPAEDMARY
# B11: NPY23-35 (peptide)
# peptide: ALRHYINLITRQR
# B12: NPY23-36 ala36 (peptide)
# peptide: ALRHYINLITRQRA
# modifications: ends and bridges not checked
# B13: NPY21-36 (peptide)
# peptide: YSALRHYINLITRQRY-NH2
# B14: NPY25-36 (peptide)
# peptide: RHYINLITRQRY-NH2
# B15: NPY27-36 (peptide)
# peptide: YINLITRQRY-NH2
# B16: NPY21-35 (peptide)
# peptide: YSALRHYINLITRQR
# Biological target: NCAM on rat hippocampal neurons (rat, UniProt P13596 20-858)
# Sequence (P13596 20-858): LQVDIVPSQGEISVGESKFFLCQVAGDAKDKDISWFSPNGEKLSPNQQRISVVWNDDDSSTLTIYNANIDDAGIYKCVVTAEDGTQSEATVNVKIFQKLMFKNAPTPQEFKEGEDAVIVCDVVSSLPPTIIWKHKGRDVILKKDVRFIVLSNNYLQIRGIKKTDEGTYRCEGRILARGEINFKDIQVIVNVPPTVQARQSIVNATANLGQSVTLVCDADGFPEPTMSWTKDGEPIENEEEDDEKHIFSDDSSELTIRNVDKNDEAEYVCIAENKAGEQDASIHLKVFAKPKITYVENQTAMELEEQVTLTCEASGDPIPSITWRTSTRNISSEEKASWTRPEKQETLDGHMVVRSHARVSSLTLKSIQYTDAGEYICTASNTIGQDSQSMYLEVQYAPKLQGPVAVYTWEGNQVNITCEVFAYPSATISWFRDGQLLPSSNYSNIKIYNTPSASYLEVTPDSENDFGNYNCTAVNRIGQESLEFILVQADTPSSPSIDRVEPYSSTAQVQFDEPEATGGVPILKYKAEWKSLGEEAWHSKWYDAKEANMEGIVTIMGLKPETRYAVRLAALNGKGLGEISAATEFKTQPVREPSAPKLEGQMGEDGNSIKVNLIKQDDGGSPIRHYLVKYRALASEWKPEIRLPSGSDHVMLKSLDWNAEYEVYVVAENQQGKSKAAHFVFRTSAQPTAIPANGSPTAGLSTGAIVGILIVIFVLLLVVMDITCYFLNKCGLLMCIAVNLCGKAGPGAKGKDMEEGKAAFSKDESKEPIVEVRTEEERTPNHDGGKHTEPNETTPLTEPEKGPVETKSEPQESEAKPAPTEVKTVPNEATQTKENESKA
# Assay: cell-based or functional assay
Binder,"Neuritogenic effect, 1 µM NPY fragment (% of control)","Neuritogenic effect, 3 µM NPY fragment (% of control)"
B1,100 % of control,91.8 % of control
B2,104 % of control,91.4 % of control
B3,107 % of control,156 % of control
B4,95.4 % of control,94.1 % of control
B5,110 % of control,285 % of control
B6,174 % of control,305 % of control
B7,166 % of control,180 % of control
B8,96.9 % of control,103 % of control
B9,87.7 % of control,97.5 % of control
B10,97.8 % of control,99.1 % of control
B11,96.2 % of control,104 % of control
B12,89.1 % of control,91.7 % of control
B13,108 % of control,186 % of control
B14,95.9 % of control,96.1 % of control
B15,107 % of control,99.1 % of control
B16,154 % of control,233 % of control
